Experimental data from PMC3500527 (Cancer cell, 2012).
Blank lines part the entries; values can stand above or below the binder they belong to.

Columns and labels:
[1] = target: T1, profilin-2 (immunoprecipitated from cell lysates; mass spectrometry) (UniProt P35080 1-140); assay: co-IP
T1 sequence (looked up): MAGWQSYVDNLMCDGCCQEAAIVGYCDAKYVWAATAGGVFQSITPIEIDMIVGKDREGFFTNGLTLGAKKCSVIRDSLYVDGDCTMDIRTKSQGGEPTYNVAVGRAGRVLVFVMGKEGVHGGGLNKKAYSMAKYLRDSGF

Cy3-mEVL1-235aa = Cy3-mEVL1-235aa (mouse (from the label mEVL), UniProt P70429 1-235, Cy3 fluorophore (site not stated)); assay: AUC
Cy3-hVASP1-240aa = Cy3-hVASP1-240aa (human, UniProt P50552 1-240, Cy3 fluorophore (site not stated)); assay: AUC
HA-EVL = target: T2, HA-EVL (UniProt Q9UI08 1-416); assay: co-IP
T2 sequence (looked up): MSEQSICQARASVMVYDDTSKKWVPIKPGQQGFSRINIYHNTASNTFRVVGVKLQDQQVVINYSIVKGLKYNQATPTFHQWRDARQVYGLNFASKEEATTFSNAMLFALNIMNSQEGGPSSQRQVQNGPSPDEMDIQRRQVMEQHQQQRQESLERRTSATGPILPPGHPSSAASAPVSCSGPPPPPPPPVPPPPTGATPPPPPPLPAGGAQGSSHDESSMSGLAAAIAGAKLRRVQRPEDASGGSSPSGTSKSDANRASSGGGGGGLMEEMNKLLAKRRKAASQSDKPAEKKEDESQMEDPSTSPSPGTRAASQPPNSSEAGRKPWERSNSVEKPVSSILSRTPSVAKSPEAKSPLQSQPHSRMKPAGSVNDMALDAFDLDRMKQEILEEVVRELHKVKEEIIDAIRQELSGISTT

fold immunoprecipitated relative to profilin-1 [1]: 1.8 fold
B1: VASP (immunoprecipitated with profilins) (natural protein, UniProt P50552 1-380, looked up)
chain: MSETVICSSRATVMLYDDGNKRWLPAGTGPQAFSRVQIYHNPTANSFRVVGRKMQPDQQVVINCAIVRGVKYNQATPNFHQWRDARQVWGLNFGSKEDAAQFAAGMASALEALEGGGPPPPPALPTWSVPNGPSPEEVEQQKRQQPGPSEHIERRVSNAGGPPAPPAGGPPPPPGPPPPPGPPPPPGLPPSGVPAAAHGAGGGPPPAPPLPAAQGPGGGGAGAPGLAAAIAGAKLRKVSKQEEASGGPTAPKAESGRSGGGGLMEEMNAMLARRRKATQVGEKTPKDESANQEEPEARVPAQSESVRRPWEKNSTTLPRMKSSSSVTTSETQPCTPSSSDYSDLQRVKQELLEEVKKELQKVKEEIIEAFVQELRKRGSP

fold immunoprecipitated relative to profilin-1 [1]: 7 fold
B2: EVL (immunoprecipitated with profilins; mass spectrometry) (natural protein, UniProt Q9UI08 1-416, looked up)
chain: MSEQSICQARASVMVYDDTSKKWVPIKPGQQGFSRINIYHNTASNTFRVVGVKLQDQQVVINYSIVKGLKYNQATPTFHQWRDARQVYGLNFASKEEATTFSNAMLFALNIMNSQEGGPSSQRQVQNGPSPDEMDIQRRQVMEQHQQQRQESLERRTSATGPILPPGHPSSAASAPVSCSGPPPPPPPPVPPPPTGATPPPPPPLPAGGAQGSSHDESSMSGLAAAIAGAKLRRVQRPEDASGGSSPSGTSKSDANRASSGGGGGGLMEEMNKLLAKRRKAASQSDKPAEKKEDESQMEDPSTSPSPGTRAASQPPNSSEAGRKPWERSNSVEKPVSSILSRTPSVAKSPEAKSPLQSQPHSRMKPAGSVNDMALDAFDLDRMKQEILEEVVRELHKVKEEIIDAIRQELSGISTT

binding result (Cy3-mEVL1-235aa): binds | binding result (Cy3-hVASP1-240aa): binds
B3: mouse profilin-2a (natural protein, UniProt Q9JJV2 1-140, looked up)
chain: MAGWQSYVDNLMCDGCCQEAAIVGYCDAKYVWAATAGGVFQSITPVEIDMIVGKDREGFFTNGLTLGAKKCSVIRDSLYVDGDCTMDIRTKSQGGEPTYNVAVGRAGRVLVFVMGKEGVHGGGLNKKAYSMAKYLRDSGF

fold immunoprecipitated relative to profilin-1 (HA-EVL): 10 fold
B4: profilin-2 (natural protein, human (endogenous in SUM159), UniProt P35080 1-140, looked up)
chain: MAGWQSYVDNLMCDGCCQEAAIVGYCDAKYVWAATAGGVFQSITPIEIDMIVGKDREGFFTNGLTLGAKKCSVIRDSLYVDGDCTMDIRTKSQGGEPTYNVAVGRAGRVLVFVMGKEGVHGGGLNKKAYSMAKYLRDSGF
